Experimental data: patent publication US20250197496A1 (EVOLVELMMUNE THERAPEUTICS, published 2025)
Changes are numbered by the printed parent chain.

Tests used:
[1] = target: T1, human ULBP2 (26-216) R44A on yeast (human, UniProt Q9BZM5 26-216); assay: yeast display FACS, 1 nM
T1 construct: fused to V5 tag and Aga2
T1 chain: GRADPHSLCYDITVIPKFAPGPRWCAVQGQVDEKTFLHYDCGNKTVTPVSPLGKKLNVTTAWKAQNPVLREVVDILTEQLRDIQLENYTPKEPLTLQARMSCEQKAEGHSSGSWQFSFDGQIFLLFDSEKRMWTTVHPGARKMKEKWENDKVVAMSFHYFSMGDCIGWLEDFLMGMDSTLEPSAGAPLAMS
From the text: (§1) Cells were washed and analyzed using BD FACSymphony A3 flow cytometer (BD Biosciences).

[2] = target: T2, human ULBP2 (26-216) Q53A on yeast (human, UniProt Q9BZM5 26-216); assay: yeast display FACS, 1 nM
T2 construct: fused to V5 tag and Aga2
T2 chain: T1 chain with A19R, Q28A
From the text: as §1

[3] = target: T3, human ULBP2 (26-216) D144A on yeast (human, UniProt Q9BZM5 26-216); assay: yeast display FACS, 1 nM
T3 construct: fused to V5 tag and Aga2
T3 chain: T1 chain with A19R, D119A
From the text: as §1

[4] = target: T4, human ULBP2 (26-216) T70A on yeast (human, UniProt Q9BZM5 26-216); assay: yeast display FACS, 1 nM
T4 construct: fused to V5 tag and Aga2
T4 chain: T1 chain with A19R, T45A
From the text: as §1

[5] = target: T5, Human ULBP2 (recombinant) (human, UniProt Q9BZM5 26-217); assay: SPR, biotinylated antigen on SA chip
T5 construct: bought (R&D Systems) as ULBP2-Fc or ULBP2-His; also called recombinant ULBP2
T5 sequence: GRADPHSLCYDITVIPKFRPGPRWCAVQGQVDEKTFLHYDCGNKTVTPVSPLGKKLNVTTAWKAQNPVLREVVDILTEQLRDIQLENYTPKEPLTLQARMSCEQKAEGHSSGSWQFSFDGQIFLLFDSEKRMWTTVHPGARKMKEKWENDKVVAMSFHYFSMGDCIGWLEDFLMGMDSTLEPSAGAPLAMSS
Method: Surface plasmon resonance (SPR) was performed on the Biacore 8K+ (Cytiva). Biotin labelled proteins were captured using the Sensor chip SA (Cytiva). […] The association contact and dissociation time are 60-120 seconds and 120-420 seconds respectively. The chip surface is regenerated by injecting 10 mM glycine, pH 1.5, at a flow rate of 30 μL/min for 60 seconds. The kinetic and affinity constants are determined by fitting the data to a 1:1 binding model using the Biacore insight evaluation software.

[6] = target: T6, human ULBP2 (26-216) R106L displayed on yeast (human, UniProt Q9BZM5 26-216); assay: flow cytometry on yeast displaying ULBP2; unstained control 385
T6 construct: also called Human ULBP2 R106L; ULBP2 R106L
T6 chain: T1 chain with A19R, R81L

[7] = target: T7, human ULBP2 (26-216) displayed on yeast (human, UniProt Q9BZM5 26-216); assay: as above
T7 construct: also called Wild type; wild-type ULBP2
T7 sequence: T1 chain with A19R

[8] = target: T5, Human ULBP2 (recombinant); assay: BLI, antibody on AHC sensor
Method: (§2) Bio-layer interferometry (BLI) was performed on the Octet RED384 (Sartorius). […] Subsequently, dissociation was measured over 600 seconds. The kinetic and affinity constants are determined by fitting the data to a 1:1 binding model using the Octet analysis software.

Human ULBP5-His = target: T8, Human ULBP5-His (human, UniProt Q6H3X3 26-223, limits assumed); assay: BLI, antibody on AHC sensor
T8 construct: bought (R&D Systems), His tag; also called RAET1G
T8 sequence: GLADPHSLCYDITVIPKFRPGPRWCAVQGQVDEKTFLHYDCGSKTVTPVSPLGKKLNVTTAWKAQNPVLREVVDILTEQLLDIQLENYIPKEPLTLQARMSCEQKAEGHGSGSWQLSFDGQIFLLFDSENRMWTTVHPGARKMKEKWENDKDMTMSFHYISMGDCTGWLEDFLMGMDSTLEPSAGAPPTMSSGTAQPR
Method: as §2

Human ULBP6-His = target: T9, Human ULBP6-His (human, UniProt Q5VY80 26-218, limits assumed); assay: BLI, antibody on AHC sensor
T9 construct: bought (R&D Systems), His tag; also called RAET1L
T9 sequence: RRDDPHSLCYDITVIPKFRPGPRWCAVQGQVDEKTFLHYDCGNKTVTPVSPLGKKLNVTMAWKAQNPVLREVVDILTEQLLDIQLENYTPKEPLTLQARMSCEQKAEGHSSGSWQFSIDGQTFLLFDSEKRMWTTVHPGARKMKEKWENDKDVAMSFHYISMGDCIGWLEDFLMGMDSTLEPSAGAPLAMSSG
Method: as §2

B1: E12 (antibody, V domains shown)
VH: QVQLVQSGAEVKKPGASVKVSCKASGYTFTNYDINWVRQAPGQGLEWMGWIYPGDGSTYYNEKFKGRVTMTRDTSTSTVYMELSSLRSEDTAVYYCARSGDYGLYYFDYWGQGTLVTVSS
VL: EIVLTQSPATLSLSPGERATLSCRASQSIGTSIHWYQQKPGQAPRLLIYFASESISGIPARFSGSGSGTDFTLTISSLEPEDFAVYYCQQSNSWPLYTFGGGTKVEIK
notes: humanized; also called humanized ULBP2 antibody E12; anti-ULBP2/5/6 antibody
Gate 1 Freq. of Total [1]: 60.6% | Gate 2 Freq. of Total [1]: 5.16% | Gate 3 Freq. of Total [1]: 0.068% | Gate 1 Freq. of Total [2]: 5.08% | Gate 2 Freq. of Total [2]: 50.2% | Gate 3 Freq. of Total [2]: 15.7% | Gate 1 Freq. of Total [3]: 0.72% | Gate 2 Freq. of Total [3]: 34.7% | Gate 3 Freq. of Total [3]: 24.7% | Gate 1 Freq. of Total [4]: 73.8% | Gate 2 Freq. of Total [4]: 2.12% | Gate 3 Freq. of Total [4]: 0.038% | Kd [5]: 0.22 nM | koff [5]: 0.000211 s⁻¹ | kon [5]: 957000 M⁻¹ s⁻¹ | MFI [6]: 9160 | MFI [7]: 5180 | Kd [8]: 0.198 nM | Kd (Human ULBP5-His): 0.345 nM | Kd (Human ULBP6-His): 0.456 nM

B2: A06 (antibody, V domains shown)
VH: EVQLVQSGAEVKKPGESLKISCKGSGYAFSTSWMNWVRQMPGKGLEWMGRIYPGDGDTNYNGNFKGQVTISADKSISTAYLQWSSLKASDTAMYYCARGGELRLEAMDSWGQGTLVTVSS
VL: EIVMTQSPATLSLSPGERITLSCSASSSIHSNYLHWYQQKPGQAPRLLIYRTSNLASGIPARFSGSGSGTDFTLTISSLQPEDFAVYYCQQGFSIPFTFGQGTKLEIK
notes: humanized; also called humanized ULBP2 antibody A06; anti-ULBP2 antibody
Kd [5]: 0.162 nM | koff [5]: 0.000214 s⁻¹ | kon [5]: 1.32e+06 M⁻¹ s⁻¹ | MFI [6]: 828 | MFI [7]: 8030 | Kd [8]: 0.532 nM | binding result (Human ULBP5-His): no binding (tested: 250 nM (highest concentration tested)) | binding result (Human ULBP6-His): no binding (tested: 250 nM (highest concentration tested))
